The results in this text go back to publication PMC2807882, “Conservation of DNA-binding specificity and oligomerisation properties within the p53 family”.

Assay in all cases: anisotropy competition; 25 mM NaPi, 225 mM NaCl, 10% v/v glycerol, 5 mM DTT, 0.2 mg/mL BSA, 22°C; 20 nM labelled DNA; pH not stated for the binding assay
What all share (details): protein: recombinant; tags: N-terminal 6xHis-lipoyl-TEV tag, cleaved; chain copies: 4

Data set [1] addresses T1, Drp53 (Danio rerio, UniProt P79734 1-373).
T1 sequence: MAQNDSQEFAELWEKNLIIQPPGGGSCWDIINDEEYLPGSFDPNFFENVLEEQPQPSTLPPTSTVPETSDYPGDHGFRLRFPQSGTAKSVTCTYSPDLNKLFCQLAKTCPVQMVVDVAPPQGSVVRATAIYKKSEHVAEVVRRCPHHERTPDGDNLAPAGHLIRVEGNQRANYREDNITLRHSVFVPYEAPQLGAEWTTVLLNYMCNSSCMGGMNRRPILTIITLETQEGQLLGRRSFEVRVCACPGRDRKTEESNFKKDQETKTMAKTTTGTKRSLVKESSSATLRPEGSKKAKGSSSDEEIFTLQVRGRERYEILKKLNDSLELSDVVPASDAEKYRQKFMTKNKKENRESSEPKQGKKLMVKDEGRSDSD

Data set [2] deals with T2, ΔNp63γ (Homo sapiens, UniProt Q9H3D4-6 1-393).
T2 sequence: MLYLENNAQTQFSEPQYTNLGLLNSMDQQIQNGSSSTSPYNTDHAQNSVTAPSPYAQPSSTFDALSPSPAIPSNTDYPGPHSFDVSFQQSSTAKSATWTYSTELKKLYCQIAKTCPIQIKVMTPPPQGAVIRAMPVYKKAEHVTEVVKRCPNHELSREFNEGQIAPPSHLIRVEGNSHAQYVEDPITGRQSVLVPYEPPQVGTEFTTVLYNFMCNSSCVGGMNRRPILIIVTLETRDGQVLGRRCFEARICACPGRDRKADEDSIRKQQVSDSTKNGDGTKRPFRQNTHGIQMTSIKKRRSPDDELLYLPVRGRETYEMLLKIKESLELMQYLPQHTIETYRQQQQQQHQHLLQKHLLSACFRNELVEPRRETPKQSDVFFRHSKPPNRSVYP

Data set [3] concerns the target Mmp53 (Mus musculus, UniProt P02340 1-390).
Data set [4] deals with Hsp53 (Homo sapiens, UniProt P04637 1-393).
The target of data set [5] is T3, ΔNp73β (Homo sapiens, UniProt O15350-9 1-450).
T3 sequence: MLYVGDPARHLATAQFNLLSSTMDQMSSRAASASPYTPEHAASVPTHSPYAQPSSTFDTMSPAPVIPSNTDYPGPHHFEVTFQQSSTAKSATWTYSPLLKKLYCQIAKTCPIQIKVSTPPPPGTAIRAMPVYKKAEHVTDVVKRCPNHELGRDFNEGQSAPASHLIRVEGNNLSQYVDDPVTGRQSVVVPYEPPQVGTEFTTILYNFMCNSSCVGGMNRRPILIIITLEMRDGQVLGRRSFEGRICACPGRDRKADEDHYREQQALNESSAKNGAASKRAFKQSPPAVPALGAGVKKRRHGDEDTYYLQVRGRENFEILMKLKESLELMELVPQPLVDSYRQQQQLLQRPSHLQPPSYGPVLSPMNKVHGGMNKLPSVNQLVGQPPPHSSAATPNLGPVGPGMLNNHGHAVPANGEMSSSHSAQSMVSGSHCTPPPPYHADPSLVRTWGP

In data set [6] the target is T4, p73CT (Homo sapiens, UniProt O15350 104-383).
T4 sequence: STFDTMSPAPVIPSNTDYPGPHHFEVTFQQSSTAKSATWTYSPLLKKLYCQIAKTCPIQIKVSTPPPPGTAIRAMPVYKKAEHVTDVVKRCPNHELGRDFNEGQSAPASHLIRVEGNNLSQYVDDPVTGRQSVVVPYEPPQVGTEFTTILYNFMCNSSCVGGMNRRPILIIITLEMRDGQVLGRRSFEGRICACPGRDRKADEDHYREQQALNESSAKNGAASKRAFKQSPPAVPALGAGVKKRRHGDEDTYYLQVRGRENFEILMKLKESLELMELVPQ

Data set [7] deals with T5, ΔNp63β (Homo sapiens, UniProt Q9H3D4-4 1-461).
T5 sequence: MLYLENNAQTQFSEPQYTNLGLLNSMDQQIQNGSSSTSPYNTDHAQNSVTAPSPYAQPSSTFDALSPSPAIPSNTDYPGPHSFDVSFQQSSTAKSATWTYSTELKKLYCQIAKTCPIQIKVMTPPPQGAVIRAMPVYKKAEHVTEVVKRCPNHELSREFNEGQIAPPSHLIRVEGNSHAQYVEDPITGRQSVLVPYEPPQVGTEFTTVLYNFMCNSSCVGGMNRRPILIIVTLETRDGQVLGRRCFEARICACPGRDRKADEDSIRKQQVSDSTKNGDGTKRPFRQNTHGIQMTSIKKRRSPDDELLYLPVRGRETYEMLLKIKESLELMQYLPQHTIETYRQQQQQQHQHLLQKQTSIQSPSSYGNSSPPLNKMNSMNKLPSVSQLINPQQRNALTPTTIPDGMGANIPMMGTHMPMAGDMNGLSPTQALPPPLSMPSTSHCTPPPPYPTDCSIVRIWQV

Chain of Hsp53 (P04637 whole entry): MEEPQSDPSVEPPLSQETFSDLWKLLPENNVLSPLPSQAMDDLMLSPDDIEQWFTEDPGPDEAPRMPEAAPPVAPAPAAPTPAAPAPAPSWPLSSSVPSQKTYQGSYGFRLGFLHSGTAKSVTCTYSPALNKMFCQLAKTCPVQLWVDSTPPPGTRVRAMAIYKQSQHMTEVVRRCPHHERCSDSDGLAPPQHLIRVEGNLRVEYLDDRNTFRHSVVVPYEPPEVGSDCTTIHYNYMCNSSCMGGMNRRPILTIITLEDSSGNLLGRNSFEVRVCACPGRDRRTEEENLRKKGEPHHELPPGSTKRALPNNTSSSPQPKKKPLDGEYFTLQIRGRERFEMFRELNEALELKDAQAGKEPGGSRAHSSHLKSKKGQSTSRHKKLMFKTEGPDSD
Chain of Mmp53 (P02340 whole entry): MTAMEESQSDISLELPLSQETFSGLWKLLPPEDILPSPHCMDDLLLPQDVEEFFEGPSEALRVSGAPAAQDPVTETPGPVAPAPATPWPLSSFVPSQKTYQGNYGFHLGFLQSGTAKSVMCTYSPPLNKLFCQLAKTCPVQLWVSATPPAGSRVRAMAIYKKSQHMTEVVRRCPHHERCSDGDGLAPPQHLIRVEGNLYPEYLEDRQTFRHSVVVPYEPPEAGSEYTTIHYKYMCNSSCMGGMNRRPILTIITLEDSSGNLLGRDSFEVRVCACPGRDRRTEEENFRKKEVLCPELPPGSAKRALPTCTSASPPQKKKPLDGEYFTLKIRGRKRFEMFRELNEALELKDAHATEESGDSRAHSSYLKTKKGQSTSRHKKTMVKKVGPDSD

B1: Ref competitor (dsDNA)
DNA 1: CGCGGACATGTCCGGACATGTCCCGC
DNA 2: GCGGGACATGTCCGGACATGTCCGCG
On to B1, for which the Kd in data set [1] was -7.42 log10(M); in data set [2], -7.48 log10(M); in data set [3], -6.88 log10(M); in data set [4], -7.12 log10(M); in data set [5], -7.62 log10(M); in data set [6] it was -6.83 log10(M). In data set [7], the Kd is -7.45 log10(M).
